B1: Vacuolar protein sorting-associated protein 28 homolog (Homo sapiens), Q9UK41-2 (parent)
chain: MFHGIPATPGIGAPGNKPELYEEVKLYKNAREREKYDNMAELFAVVKTMQALEKAYIKDCVSPSEYTAACSRLLVQYKAAFRQVQGSEISSIDEFCRKFRLDCPLAMERIKEDRPITIKDDKGNLNRCIADVVSLFITVMDKLRLEIRAMDEIQPDLRELMETMHRMSHLPPDFEGRQTVSQWWVSLPARQSPAVPETLPARRSPAVPLRPSAPTCPVLHSQAADPERHVGVR
B2: Angiomotin (Homo sapiens), Q4VCS5 (parent)
chain: MRNSEEQPSGGTTVLQRLLQEQLRYGNPSENRSLLAIHQQATGNGPPFPSGSGNPGPQSDVLSPQDHHQQLVAHAARQEPQGQEIQSENLIMEKQLSPRMQNNEELPTYEEAKVQSQYFRGQQHASVGAAFYVTGVTNQKMRTEGRPSVQRLNPGKMHQDEGLRDLKQGHVRSLSERLMQMSLATSGVKAHPPVTSAPLSPPQPNDLYKNPTSSSEFYKAQGPLPNQHSLKGMEHRGPPPEYPFKGMPPQSVVCKPQEPGHFYSEHRLNQPGRTEGQLMRYQHPPEYGAARPAQDISLPLSARNSQPHSPTSSLTSGGSLPLLQSPPSTRLSPARHPLVPNQGDHSAHLPRPQQHFLPNQAHQGDHYRLSQPGLSQQQQQQQQQHHHHHHHQQQQQQQPQQQPGEAYSAMPRAQPSSASYQPVPADPFAIVSRAQQMVEILSDENRNLRQELEGCYEKVARLQKVETEIQRVSEAYENLVKSSSKREALEKAMRNKLEGEIRRMHDFNRDLRERLETANKQLAEKEYEGSEDTRKTISQLFAKNKESQREKEKLEAELATARSTNEDQRRHIEIRDQALSNAQAKVVKLEEELKKKQVYVDKVEKMQQALVQLQAACEKREQLEHRLRTRLERELESLRIQQRQGNCQPTNVSEYNAAALMELLREKEERILALEADMTKWEQKYLEENVMRHFALDAAATVAAQRDTTVISHSPNTSYDTALEARIQKEEEEILMANKRCLDMEGRIKTLHAQIIEKDAMIKVLQQRSRKEPSKTEQLSCMRPAKSLMSISNAGSGLLSHSSTLTGSPIMEEKRDDKSWKGSLGILLGGDYRAEYVPSTPSPVPPSTPLLSAHSKTGSRDCSTQTERGTESNKTAAVAPISVPAPVAAAATAAAITATAATITTTMVAAAPVAVAAAAAPAAAAAPSPATAAATAAAVSPAAAGQIPAAASVASAAAVAPSAAAAAAVQVAPAAPAPVPAPALVPVPAPAAAQASAPAQTQAPTSAPAVAPTPAPTPTPAVAQAEVPASPATGPGPHRLSIPSLTCNPDKTDGPVFHSNTLERKTPIQILGQEPDAEMVEYLI
B3: Pre-mRNA-splicing factor SPF27 (Homo sapiens), O75934 (parent)
chain: MAGTGLVAGEVVVDALPYFDQGYEAPGVREAAAALVEEETRRYRPTKNYLSYLTAPDYSAFETDIMRNEFERLAARQPIELLSMKRYELPAPSSGQKNDITAWQECVNNSMAQLEHQAVRIENLELMSQHGCNAWKVYNENLVHMIEHAQKELQKLRKHIQDLNWQRKNMQLTAGSKLREMESNWVSLVSKNYEIERTIVQLENEIYQIKQQHGEANKENIRQDF
B4: Ribosome quality control complex subunit TCF25 (Homo sapiens), Q9BQ70 (parent)
chain: MSRRALRRLRGEQRGQEPLGPGALHFDLRDDDDAEEEGPKRELGVRRPGGAGKEGVRVNNRFELINIDDLEDDPVVNGERSGCALTDAVAPGNKGRGQRGNTESKTDGDDTETVPSEQSHASGKLRKKKKKQKNKKSSTGEASENGLEDIDRILERIEDSTGLNRPGPAPLSSRKHVLYVEHRHLNPDTELKRYFGARAILGEQRPRQRQRVYPKCTWLTTPKSTWPRYSKPGLSMRLLESKKGLSFFAFEHSEEYQQAQHKFLVAVESMEPNNIVVLLQTSPYHVDSLLQLSDACRFQEDQEMARDLVERALYSMECAFHPLFSLTSGACRLDYRRPENRSFYLALYKQMSFLEKRGCPRTALEYCKLILSLEPDEDPLCMLLLIDHLALRARNYEYLIRLFQEWEAHRNLSQLPNFAFSVPLAYFLLSQQTDLPECEQSSARQKASLLIQQALTMFPGVLLPLLESCSVRPDASVSSHRFFGPNAEISQPPALSQLVNLYLGRSHFLWKEPATMSWLEENVHEVLQAVDAGDPAVEACENRRKVLYQRAPRNIHRHVILSEIKEAVAALPPDVTTQSVMGFDPLPPSDTIYSYVRPERLSPISHGNTIALFFRSLLPNYTMEGERPEEGVAGGLNRNQGLNRLMLAVRDMMANFHLNDLEAPHEDDAEGEGEWD
B5: Histone-lysine N-methyltransferase SMYD1 (Homo sapiens), Q8NB12 (parent)
chain: MTIGRMENVEVFTAEGKGRGLKATKEFWAADIIFAERAYSAVVFDSLVNFVCHTCFKRQEKLHRCGQCKFAHYCDRTCQKDAWLNHKNECSAIKRYGKVPNENIRLAARIMWRVEREGTGLTEGCLVSVDDLQNHVEHFGEEEQKDLRVDVDTFLQYWPPQSQQFSMQYISHIFGVINCNGFTLSDQRGLQAVGVGIFPNLGLVNHDCWPNCTVIFNNGNHEAVKSMFHTQMRIELRALGKISEGEELTVSYIDFLNVSEERKRQLKKQYYFDCTCEHCQKKLKDDLFLGVKDNPKPSQEVVKEMIQFSKDTLEKIDKARSEGLYHEVVKLCRECLEKQEPVFADTNIYMLRMLSIVSEVLSYLQAFEEASFYARRMVDGYMKLYHPNNAQLGMAVMRAGLTNWHAGNIEVGHGMICKAYAILLVTHGPSHPITKDLEAMRVQTEMELRMFRQNEFMYYKMREAALNNQPMQVMAEPSNEPSPALFHKKQ
partner: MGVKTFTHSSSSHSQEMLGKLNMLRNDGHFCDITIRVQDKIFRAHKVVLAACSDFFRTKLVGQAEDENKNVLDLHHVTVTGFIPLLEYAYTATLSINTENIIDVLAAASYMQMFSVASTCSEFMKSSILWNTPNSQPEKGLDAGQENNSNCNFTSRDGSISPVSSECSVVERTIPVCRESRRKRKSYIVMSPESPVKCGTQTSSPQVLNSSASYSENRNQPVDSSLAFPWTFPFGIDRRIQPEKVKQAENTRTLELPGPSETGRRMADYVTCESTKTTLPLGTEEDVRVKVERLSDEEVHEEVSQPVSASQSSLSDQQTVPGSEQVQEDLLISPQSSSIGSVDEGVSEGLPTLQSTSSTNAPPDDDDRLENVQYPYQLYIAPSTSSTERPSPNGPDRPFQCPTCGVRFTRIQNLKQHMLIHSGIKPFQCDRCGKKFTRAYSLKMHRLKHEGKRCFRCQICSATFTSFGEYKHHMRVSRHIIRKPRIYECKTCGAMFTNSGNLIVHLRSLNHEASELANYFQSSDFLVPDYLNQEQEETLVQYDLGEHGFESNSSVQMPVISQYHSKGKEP
B6: Coiled-coil domain-containing protein 185 (Homo sapiens), Q8N715 (parent)
chain: MAGFSHFSQPPYRDLWEPPRPGGERESTQRLGGQRSGADSTACSRAGTPGAESEAGACWLHPHCSFTPRPRRRGCSDSLRGSRSLSDVARRPLERSRKHRPRSRRLEDAWGETGTKPRPAWQPQTQLPPQRPQPCPHYPLAQGDSPPPCPGGAGTPLSGTFRVEKAQGGDQWAVPLGRHLGRWSPSSVPSERSSVPSQKFKRHSACVCAQKRDSSDQVESLASRDSQPLASSKEMRSPHTQVLKSKLEEVVVSSQDQQIVALVLTRLKKAQRIRELQQQAAKAWEELKRSDQKVQMTLERERRLLLRQSQEQWQEKEQRKTLQSPEQRGLRRDSQRKNVPPGESRWKEQPEDQESPRQEKLEKARAQAEHRKQCQVRRLREQEKMLRNLREQHSLQLQRRLVEACRKRHLHAVEGQKKVQDTNLSSLINYQARKVLMDCQAKAEELLRQLSLEQSFQRSQEIHQGLRKERQRELREKAQKEEEQLQQARWRAGESEEQRKMRKRILVELADEKIRQARSHVHKTTRDKVQHLRELNHLREKNHHILKLKAEKEEKCHIEGIKEAIKKKEQRVQHISQGKDPNFQEFQKLPQASRREERAPPNSSLDQMVLEAQLRACQQNRGY
B7: Keratin-associated protein 5-9 (Homo sapiens), P26371 (parent)
chain: MGCCGCSGGCGSSCGGCDSSCGSCGSGCRGCGPSCCAPVYCCKPVCCCVPACSCSSCGKRGCGSCGGSKGGCGSCGCSQCSCCKPCCCSSGCGSSCCQCSCCKPYCSQCSCCKPCCSSSGRGSSCCQSSCCKPCCSSSGCGSSCCQSSCCKPCCSQSRCCVPVCYQCKI
partner: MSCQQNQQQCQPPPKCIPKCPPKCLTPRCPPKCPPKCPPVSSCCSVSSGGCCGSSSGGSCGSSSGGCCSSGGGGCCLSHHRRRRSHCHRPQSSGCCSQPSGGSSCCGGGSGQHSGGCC

Variants of: B1
Details: with ts101_human TSG101, Q99816

| Variant | effect of a mutation on the interaction |
| --- | --- |
| R203W | with no effect |

Variants of: B2
Details: with maga4_human MAGEA4, P43358
Sequence of maga4_human MAGEA4, P43358 (P43358 whole entry): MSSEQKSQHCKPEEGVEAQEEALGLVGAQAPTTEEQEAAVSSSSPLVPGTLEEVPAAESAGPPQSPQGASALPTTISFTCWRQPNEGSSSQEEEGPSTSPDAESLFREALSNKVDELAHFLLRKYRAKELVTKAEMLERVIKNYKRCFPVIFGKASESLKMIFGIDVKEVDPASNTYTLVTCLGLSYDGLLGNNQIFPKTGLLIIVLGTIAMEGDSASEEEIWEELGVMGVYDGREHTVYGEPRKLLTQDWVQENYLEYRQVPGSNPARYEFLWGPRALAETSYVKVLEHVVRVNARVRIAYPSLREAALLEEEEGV

| Variant | effect of a mutation on the interaction |
| --- | --- |
| T899A | with no effect |

Variants of: B2
Details: with UNC119, Q13432

| Variant | effect of a mutation on the interaction |
| --- | --- |
| A556V | with no effect |

Variants of: B2
Details: with KRT15, P19012
Target sequence in this assay (P19012 whole entry): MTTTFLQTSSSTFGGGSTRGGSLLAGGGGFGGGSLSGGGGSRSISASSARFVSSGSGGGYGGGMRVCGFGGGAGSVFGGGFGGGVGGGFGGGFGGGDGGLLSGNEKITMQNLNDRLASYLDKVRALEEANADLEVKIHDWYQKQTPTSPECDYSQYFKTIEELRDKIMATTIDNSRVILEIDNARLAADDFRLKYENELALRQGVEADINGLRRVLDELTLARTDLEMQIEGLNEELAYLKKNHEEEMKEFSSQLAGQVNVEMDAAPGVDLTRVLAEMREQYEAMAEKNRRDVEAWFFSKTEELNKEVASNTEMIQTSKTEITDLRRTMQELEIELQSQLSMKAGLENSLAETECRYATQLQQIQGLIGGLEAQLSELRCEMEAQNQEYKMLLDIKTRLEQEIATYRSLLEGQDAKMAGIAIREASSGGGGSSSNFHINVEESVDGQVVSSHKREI

| Variant | effect of a mutation on the interaction |
| --- | --- |
| A556V | with no effect |

Variants of: B3
Details: with itf2_human TCF4, P15884
Sequence of itf2_human TCF4, P15884 (P15884 whole entry): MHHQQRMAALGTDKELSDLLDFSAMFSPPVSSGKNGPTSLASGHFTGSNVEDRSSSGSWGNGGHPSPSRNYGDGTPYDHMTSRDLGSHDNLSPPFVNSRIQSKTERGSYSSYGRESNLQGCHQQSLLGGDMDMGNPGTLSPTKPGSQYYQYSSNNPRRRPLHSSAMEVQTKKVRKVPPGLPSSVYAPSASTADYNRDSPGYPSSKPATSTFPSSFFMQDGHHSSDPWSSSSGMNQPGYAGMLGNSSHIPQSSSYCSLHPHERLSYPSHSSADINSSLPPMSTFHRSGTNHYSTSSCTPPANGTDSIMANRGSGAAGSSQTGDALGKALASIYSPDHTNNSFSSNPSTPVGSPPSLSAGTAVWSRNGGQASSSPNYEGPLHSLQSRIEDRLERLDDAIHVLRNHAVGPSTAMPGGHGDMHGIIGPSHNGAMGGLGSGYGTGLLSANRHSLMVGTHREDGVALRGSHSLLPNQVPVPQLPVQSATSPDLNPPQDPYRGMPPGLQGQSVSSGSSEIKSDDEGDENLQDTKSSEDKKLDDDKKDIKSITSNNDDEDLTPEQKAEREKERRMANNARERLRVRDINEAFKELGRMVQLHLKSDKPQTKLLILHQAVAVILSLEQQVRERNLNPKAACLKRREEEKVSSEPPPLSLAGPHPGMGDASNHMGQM

| Variant | effect of a mutation on the interaction |
| --- | --- |
| N139S | with no effect |

Variants of: B3
Details: with hgs_human HGS

| Variant | effect of a mutation on the interaction |
| --- | --- |
| N139S | with no effect |

Variants of: B3
Details: with ikzf3_human IKZF3, Q9UKT9
Sequence of ikzf3_human IKZF3, Q9UKT9 (Q9UKT9 whole entry): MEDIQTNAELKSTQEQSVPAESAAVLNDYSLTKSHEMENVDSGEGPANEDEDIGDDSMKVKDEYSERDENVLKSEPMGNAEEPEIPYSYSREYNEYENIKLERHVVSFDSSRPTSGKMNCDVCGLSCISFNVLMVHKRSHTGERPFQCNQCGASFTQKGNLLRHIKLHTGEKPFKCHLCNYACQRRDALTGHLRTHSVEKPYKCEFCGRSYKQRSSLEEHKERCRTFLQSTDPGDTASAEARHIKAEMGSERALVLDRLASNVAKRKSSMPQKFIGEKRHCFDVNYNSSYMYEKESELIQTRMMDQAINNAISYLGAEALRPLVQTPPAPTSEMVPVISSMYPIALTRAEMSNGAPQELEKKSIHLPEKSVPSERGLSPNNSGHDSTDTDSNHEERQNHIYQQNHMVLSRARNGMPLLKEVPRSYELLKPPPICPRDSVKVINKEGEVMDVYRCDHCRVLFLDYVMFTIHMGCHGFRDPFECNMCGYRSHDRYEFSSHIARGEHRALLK

| Variant | effect of a mutation on the interaction |
| --- | --- |
| N139S | with no effect |

Variants of: B4
Details: with sat1_human SAT1, P21673
Sequence of sat1_human SAT1, P21673 (P21673 whole entry): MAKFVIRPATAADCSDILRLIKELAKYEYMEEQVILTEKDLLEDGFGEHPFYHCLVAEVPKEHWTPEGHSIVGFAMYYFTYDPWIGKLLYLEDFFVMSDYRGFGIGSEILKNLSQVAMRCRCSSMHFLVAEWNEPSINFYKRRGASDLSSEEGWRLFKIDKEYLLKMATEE

| Variant | effect of a mutation on the interaction |
| --- | --- |
| V526A | with no effect |

Variants of: B5
Details: with zbt44_human ZBTB44, Q8NCP5

| Variant | effect of a mutation on the interaction |
| --- | --- |
| R333Q | with no effect |
| H427L | with no effect |
| Q164P | with no effect |

Variants of: B6
Details: with KRT15, P19012
Target sequence in this assay (P19012 whole entry): as the sequence (P19012 whole entry) above

| Variant | effect of a mutation on the interaction |
| --- | --- |
| S603G | with no effect |

Variants of: B7
Details: with lce1b_human LCE1B

| Variant | effect of a mutation on the interaction |
| --- | --- |
| Y40C | with no effect |

Reference: IntAct's records for PubMed 31515488
